Data published in PMC6677536 (2019).

B1: Full-length Nxf2, 3xFLAG-tagged [D. melanogaster] / Full-length Panx, HA-tagged [D. melanogaster] (parent complex)
chain 1: MPNQMRVLDFGDGSVPIQLDYPDSKIFSKCSSYGDRVPGTHWNEITVHHKGRLEYSPNPEQIILDALYQAIDGADFFPVFYQRGKNMDTMLVRNCKAAIDKLFKQRLSINLKGGASIPISIQLGVAQYQRHQITPTFHIARVVTRLMKQLIQRDGVDGLLNLDNFGSHPEFKNLVVSLGNPSILMNVCQVIHNDDNERFRLNGFILSNNRIRDIRPLTLLANVDYALLDLRGNKIKSAERLCRALEQFRARELLLENNPIVKISNFPANIKSLESNFELVDGKPFNMLHKIFSPLDVEIDLEVDGARIDTNNMWKLPEFENSQHWHAFMIPDPSHEFNQEVFFDFFFIRLDPTLSNFYPCYYKYINTEHVFLVRNCFDQIAHLVNNCNLEMTIPTGDRIFRYYLRMNVSTVKQHHVDPEECIQKAVSQCYVAQNRMLNLERFHSRECLKDVMVSLSSPKILTYVLSVASRKFMTTCSEIRLCHNKVLVLDGAHVLGMMGCLRAVDLSHNWVQDLSSIHSLGNLPLKSLVLHGNKLCRNYRLPSEYVRAVKEVFPQLTTLDGVDLQTNPGQSLQKNFLCDTGAYELVGAFLENYLREFENDEFRHNLYKYYSENSIFTLTCNYNVVQNHQTPKILQRLSKYNRHARNLRNKDYSKASDGVFFGCTYIVEILLQLPRVTHDFHSLQTDVMHYNGKGAVIYVAGLLRDEPPSTRNGHGSKTDIGGVLLGFSRQFVVTFDEANLGLGKRARRLKIANERLHITNPSKTAIRNAFSVNFPDPSERQAEEDSLDVKDHKLLLFQEVTGLISTWVTSIVEEADWDFERALKLFIQKNADHEIPDLAFA
chain 2: MEAPMKLEVKVENYVECGINEDEATPLREGTGETPPHAFACGVPMSGSGWCSDPEDGNLVHHSATPTSDEHLQPSLDTIEPKMEPKIKEDADNAMLDSLLADPFENNSPATLQTPADVKPNAMLDSVEQGSRSCELLPSEFSKRENLDDMDLFSLKAAKTLVPDEQQSFPQNDTPIDDPEAADLIAQKREILKMLEMTAENRKVKHKKKKHKKERSHRSNKHQEESRKRNHSNSSSDEGADDKNQFDCDYRGHKKYKNRRGSASSQNESSKERKLRDTELDYVPVRPDEHFIRPIKFSNLIERRPPQVEFNTVNLSKADKRSLAVARAELVLEQIQQKANKEEPPEFHMVDTICKLPVNESFRNQDCFENPSPICNNMNVVYKFNSTPGTRIDLSKWGLETVPEATKRLLRLLGIDVARLKELQSTVKPSQRILKLKKEQLEQGLAPTEEQETATLYKNAATQTERRTATRDAGTQVRLESKLNGAFWQNPHFDPMNLTQHQSNVMLALQEIYQTLPSATMAVKLSRALAPALAIIKGRQP

Variants of: B1
Assay: FLAG-tag co-immunoprecipitation, western blot quantification; lysates of transfected S2 cells; read off a plot

log10 ratio	Variant
~-0.45 log10 coIP index [arbitrary unit]	chain 1 R755G
